From paper PMC9317006, “A Fiber-Based SPR Aptasensor for the In Vitro Detection of Inflammation Biomarkers”

T1: C-reactive protein (CRP) (human, UniProt P02741 19-224)
T1 sequence: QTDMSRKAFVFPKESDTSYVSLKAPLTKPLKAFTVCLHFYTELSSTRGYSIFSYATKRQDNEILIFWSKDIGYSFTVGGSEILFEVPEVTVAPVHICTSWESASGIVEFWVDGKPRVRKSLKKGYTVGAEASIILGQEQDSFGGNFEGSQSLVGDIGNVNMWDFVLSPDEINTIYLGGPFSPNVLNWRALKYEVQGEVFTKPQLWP


Tests used:
[1] = system: hemoglobin; experiment: fiber-based SPR; settings: 100 nM protein; 3' thiol; Detection buffer: 25 mM Tris base, 192 mM glycine, 0.05% Tween 20, 0.1% BSA, 2 mM CaCl2, 100 mM NaCl, pH 8.0; binding temperature not stated (RI calibration at …)
[2] = system: fibrinogen; experiment: fiber-based SPR; settings: 100 nM protein; 3' thiol; Detection buffer: 25 mM Tris base, 192 mM glycine, 0.05% Tween 20, 0.1% BSA, 2 mM CaCl2, 100 mM NaCl, pH 8.0; binding temperature not stated (RI calibration at …)
[3] = target: T1, C-reactive protein (CRP); experiment: fiber-based SPR; LOD 1.7 nM (not a Kd); aptamer loaded at 100 nM; Detection buffer: 25 mM Tris base, 192 mM glycine, 0.05% Tween 20, 0.1% BSA, 2 mM CaCl2, 100 mM NaCl, pH 8.0; binding temperature not stated (RI calibration at); settings: protein: recombinant; chain copies: 5
[4] = target: cardiac troponin I (cTn-I) (human, UniProt P19429 1-210); experiment: fiber-based SPR; LOD 2.5 nM (not a Kd); aptamer loaded at 200 nM; Detection buffer: 25 mM Tris base, 192 mM glycine, 0.05% Tween 20, 0.1% BSA, 2 mM CaCl2, 100 mM NaCl, pH 8.0; binding temperature not stated (RI calibration at); settings: protein: recombinant
cardiac troponin I (cTn-I), sequence (P19429 whole entry): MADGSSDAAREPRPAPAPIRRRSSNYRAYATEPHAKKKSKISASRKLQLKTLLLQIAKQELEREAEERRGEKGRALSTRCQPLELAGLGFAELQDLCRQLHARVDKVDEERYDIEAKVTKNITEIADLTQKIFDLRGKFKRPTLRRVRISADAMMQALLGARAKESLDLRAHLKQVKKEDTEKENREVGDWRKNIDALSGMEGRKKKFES

Molecule	binding signal (% of specific response) [1]	binding signal (% of specific response) [2]	binding result [3]	binding result [4]
CGAAGGGGATTCGAGGGGTGATTGCGTGCTCCATTTGGTGTTTTT [cTn-I aptamer]	< 20	< 20		
GGCAGGAAGACAAACACGATGGGGGGGTATGATTTGATGTGGTTGTGCATGATCGTGGTCTGTGGTGCTGTTTTT [CRP aptamer]	< 20	< 20		
CRP aptamer (ssDNA, 3' thiol) DNA: GGCAGGAAGACAAACACGATGGGGGGGTATGATTTGATGTGGTTGTGCATGATCGTGGTCTGTGGTGCTGTTTTT			binds	
CGAAGGGGATTCGAGGGGTGATTGCGTGCTCCATTTGGTGTTTTT (ssDNA, 3' thiol) [cTn-I aptamer]				binds
